Assay results: US20210346432A1 (Memorial Sloan Kettering, published 2021)
No end group written: not given here. *: point of attachment. Biotin = O=C1N[C@H]2[C@H](CS[C@H]2CCCCC(=O)*)N1

B1: ET140-174 mIgG1 (antibody, V domains shown)
VH: EVQLVQSGAEVKKPGESLKISCKGSGYSFTSYWIGWVRQMPGKGLEWMGIIYPGDSDTRYSPSFQGHVTISADKSISTAYLQWSSLKASDTAMYYCARYSGSFDNWGQGTLVTVSS
VL: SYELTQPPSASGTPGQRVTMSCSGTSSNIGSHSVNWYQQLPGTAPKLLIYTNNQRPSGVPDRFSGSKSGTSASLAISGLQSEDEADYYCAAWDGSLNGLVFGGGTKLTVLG
notes: also called ET140-24 mIgG1; ET140-24
B2: ET140-153 mIgG1 (antibody, V domains shown)
VH: QVQLVQSGAEVKKPGSSVKVSCKASGGTFSSYAISWVRQAPGQGLEWMGRIIPILGIANYAQKFQGRVTITADKSTSTAYMELSSLRSEDTAVYYCARGGYYSHDMWSEDWGQGTLVTVSS
VL: LPVLTQPPSASGTPGQRVTISCSGRSSNIGSNSVNWYRQLPGAAPKLLIYSNNQRPPGVPVRFSGSKSGTSASLAISGLQSEDEATYYCATWDDNLNVHYVFGTGTKVTVLG
notes: also called ET140-3 mIgG1; ET140-3
B3: ET140-204 mIgG1 (antibody, V domains shown)
VH: EVQLVQSGAEMKKPGASLKLSCKASGYTFIDYYVYWMRQAPGQGLESMGWINPNSGGTNYAQKFQGRVTMTRDTSISTAYMELSRLRSDDTAMYYCARSQRDGYMDYWGQGTLVTVSS
VL: QSALTQPASVSASPGQSIAISCTGTSSDVGWYQQHPGKAPKLMIYEDSKRPSGVSNRFSGSKSGNTASLTISGLQAEDEADYYCSSNTRSSTLVFGGGTKLTVLG
notes: also called ET140-54 mIgG1; ET140-54

Key:
[1] = target: T1, ET140-p5 (human); test: peptide ELISA, biotin peptide on streptavidin plate
T1 construct: also called peptide 5
T1 peptide: Biotin-SGSGGQCSQNEYFDSLLHA
Protocol: (§1) The peptides were coated onto Streptavidin plates at 2 ug/mL in PBST (PBS+0.05% Tween-20). After washing and blocking with 3% BSA. […] “mIgG1” used in all Examples represents that the variable region is fully human and the Fc part is mouse IgG1. Then HRP anti-mouse IgG detection antibody was added to each well. Finally, the color was developed using TMB substrate. A450 was recorded for data analysis.

[2] = target: T2, ET140-p6 (human, cysteine pairing not given here); test: as above
T2 construct: also called peptide 6
T2 peptide: Biotin-SGSGQCSQNEYFDSLLHAC
Protocol: as §1

[3] = target: T3, ET140-p7 (human, cysteine pairing not given here); test: as above
T3 construct: also called peptide 7
T3 peptide: Biotin-SGSGCSQNEYFDSLLHACI
Protocol: as §1

[4] = target: T4, ET140-p8 (human); test: as above
T4 construct: also called peptide 8
T4 peptide: Biotin-SGSGSQNEYFDSLLHACIP
Protocol: as §1

[5] = target: T5, ET140-p9 (human, cysteine pairing not given here); test: as above
T5 construct: also called peptide 9
T5 peptide: Biotin-SGSGQNEYFDSLLHACIPC
Protocol: as §1

[6] = target: T6, ET140-p12 (human, cysteine pairing not given here); test: as above
T6 construct: also called peptide 12
T6 peptide: Biotin-SGSGYFDSLLHACIPCQLR
Protocol: as §1

[7] = target: T7, ET140-p20 (human, cysteine pairing not given here); test: as above
T7 construct: also called peptide 20
T7 peptide: Biotin-SGSGCIPCQLRCSSNTPPL
Protocol: as §1

[8] = target: T8, ET140-p21 (human, cysteine pairing not given here); test: as above
T8 construct: also called peptide 21
T8 peptide: Biotin-SGSGIPCQLRCSSNTPPLT
Protocol: as §1

[9] = target: T9, ET140-p24 (human, cysteine pairing not given here); test: as above
T9 construct: also called peptide 24
T9 peptide: Biotin-SGSGQLRCSSNTPPLTCQR
Protocol: as §1

[10] = target: T10, ET140-p28 (human, cysteine pairing not given here); test: as above
T10 construct: also called peptide 28
T10 peptide: Biotin-SGSGSSNTPPLTCQRYCNA
Protocol: as §1

[11] = target: T11, ET140-p31 (human, cysteine pairing not given here); test: as above
T11 construct: also called peptide 31
T11 peptide: Biotin-SGSGTPPLTCQRYCNASVT
Protocol: as §1

[12] = target: T12, ET140-p33 (human, cysteine pairing not given here); test: as above
T12 construct: also called peptide 33
T12 peptide: Biotin-SGSGPLTCQRYCNASVTNS
Protocol: as §1

[13] = target: T13, ET140-p39 (human); test: as above
T13 construct: also called peptide 39
T13 peptide: Biotin-SGSGYCNASVTNSVKGTNA
Protocol: as §1

[14] = target: T14, ET140-p3 (human); test: peptide ELISA on streptavidin plate, antibody 1 ug/mL
T14 construct: also called peptide 3
T14 peptide: Biotin-SGSGMAGQCSQNEYFDSLL
Protocol: as §1

[15] = target: T2, ET140-p6; test: as above
Protocol: as §1

[16] = target: T4, ET140-p8; test: as above
Protocol: as §1

[17] = target: T5, ET140-p9; test: as above
Protocol: as §1

[18] = target: T15, ET140-p11 (human, cysteine pairing not given here); test: as above
T15 construct: also called peptide 11; ET140-pll
T15 peptide: Biotin-SGSGEYFDSLLHACIPCQL
Protocol: as §1

[19] = target: T16, ET140-p16 (human, cysteine pairing not given here); test: as above
T16 construct: also called peptide 16
T16 peptide: Biotin-SGSGLLHACIPCQLRCSSN
Protocol: as §1

[20] = target: T17, ET140-p18 (human, cysteine pairing not given here); test: as above
T17 construct: also called peptide 18
T17 peptide: Biotin-SGSGHACIPCQLRCSSNTP
Protocol: as §1

[21] = target: T18, ET140-p19 (human, cysteine pairing not given here); test: as above
T18 construct: also called peptide 19
T18 peptide: Biotin-SGSGACIPCQLRCSSNTPP
Protocol: as §1

[22] = target: T7, ET140-p20; test: as above
Protocol: as §1

[23] = target: T8, ET140-p21; test: as above
Protocol: as §1

[24] = target: T19, ET140-p23 (human, cysteine pairing not given here); test: as above
T19 construct: also called peptide 23
T19 peptide: Biotin-SGSGCQLRCSSNTPPLTCQ
Protocol: as §1

[25] = target: T9, ET140-p24; test: as above
Protocol: as §1

[26] = target: T20, ET140-p25 (human, cysteine pairing not given here); test: as above
T20 construct: also called peptide 25
T20 peptide: Biotin-SGSGLRCSSNTPPLTCQRY
Protocol: as §1

[27] = target: T21, ET140-p26 (human, cysteine pairing not given here); test: as above
T21 construct: also called peptide 26
T21 peptide: Biotin-SGSGRCSSNTPPLTCQRYC
Protocol: as §1

[28] = target: T22, ET140-p29 (human, cysteine pairing not given here); test: as above
T22 construct: also called peptide 29
T22 peptide: Biotin-SGSGSNTPPLTCQRYCNAS
Protocol: as §1

[29] = target: T23, ET140-p30 (human, cysteine pairing not given here); test: as above
T23 construct: also called peptide 30
T23 peptide: Biotin-SGSGNTPPLTCQRYCNASV
Protocol: as §1

[30] = target: T24, ET140-p34 (human, cysteine pairing not given here); test: as above
T24 construct: also called peptide 34
T24 peptide: Biotin-SGSGLTCQRYCNASVTNSV
Protocol: as §1

Binder	binding result [1]	binding result [2]	binding result [3]	binding result [4]	binding result [5]	A450 [14]	A450 [15]	A450 [16]	A450 [17]	A450 [18]	A450 [19]	A450 [20]	A450 [21]	A450 [22]	A450 [23]	A450 [24]	A450 [25]	A450 [28]	A450 [29]	A450 [30]	other results
B1	no binding (tested: 1 ug/mL)	no binding (tested: 1 ug/mL)	no binding (tested: 1 ug/mL)	no binding (tested: 1 ug/mL)	no binding (tested: 1 ug/mL)	0.08	0.105	0.083	0.104	0.094	0.231	0.099	0.104	0.083	0.086	0.109	0.357	0.09	0.083	0.069	binding result [6]: no binding (tested: 1 ug/mL); binding result [7]: no binding (tested: 1 ug/mL); binding result [8]: no binding (tested: 1 ug/mL); binding result [9]: no binding (tested: 1 ug/mL); binding result [10]: no binding (tested: 1 ug/mL); binding result [11]: no binding (tested: 1 ug/mL); binding result [12]: no binding (tested: 1 ug/mL); binding result [13]: no binding (tested: 1 ug/mL); A450 [26]: 0.537; A450 [27]: 0.212
B2	–	–	–	–	–	0.086	0.127	0.178	2.25	1.07	0.266	0.097	0.098	0.087	0.089	0.113	0.382	0.109	0.111	0.099	–
B3	no binding (tested: 1 ug/mL)	no binding (tested: 1 ug/mL)	no binding (tested: 1 ug/mL)	no binding (tested: 1 ug/mL)	no binding (tested: 1 ug/mL)	0.083	0.095	0.073	0.087	0.085	0.263	0.105	0.099	0.081	0.077	0.101	0.325	0.083	0.08	0.07	binding result [6]: no binding (tested: 1 ug/mL); binding result [7]: no binding (tested: 1 ug/mL); binding result [8]: no binding (tested: 1 ug/mL); binding result [9]: no binding (tested: 1 ug/mL); binding result [10]: no binding (tested: 1 ug/mL); binding result [11]: no binding (tested: 1 ug/mL); binding result [12]: no binding (tested: 1 ug/mL); binding result [13]: no binding (tested: 1 ug/mL); A450 [26]: 0.494; A450 [27]: 0.2
